Assays:
[1] = target: Phosphorylated DesR wild type, full-length (Bacillus subtilis) (UniProt O34723); assay: SAXS
[2] = target: Phosphorylated DesR wild type, full-length (Bacillus subtilis) (UniProt O34723); assay: SEC

Phosphorylated DesR wild type, full-length (from UniProt O34723 1-199) (natural protein)
stoichiometry N [1]: 2
stoichiometry N [2]: 2

Source: PMC4251995
